The experiment deals with Ep-CAM antigen (human pan-carcinoma antigen) (human) (UniProt P16422). Put plainly: antibody binding to HT29 adenocarcinoma cells after 15 minute incubation; drug-treated against control cells.
UniProt P16422, sequence (P16422 24-314): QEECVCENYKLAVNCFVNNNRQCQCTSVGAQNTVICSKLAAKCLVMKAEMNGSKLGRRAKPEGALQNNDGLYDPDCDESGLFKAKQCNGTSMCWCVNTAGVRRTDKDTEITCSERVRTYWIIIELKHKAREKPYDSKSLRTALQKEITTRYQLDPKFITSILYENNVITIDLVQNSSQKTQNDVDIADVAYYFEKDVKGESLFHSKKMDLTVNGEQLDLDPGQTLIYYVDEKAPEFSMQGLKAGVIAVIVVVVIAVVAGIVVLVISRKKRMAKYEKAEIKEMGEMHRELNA

B1: Panorex (17-1A mouse monoclonal antibody) (antibody, INN chains, looked up, V domains shown)
VH: QVQLQQSGAELVRPGTSVKVSCKASGYAFTNYLIEWVKQRPGQGLEWIGVINPGSGGTNYNEKFKGKATLTADKSSSTAYMQLSSLTSDDSAVYFCARDGPWFAYWGQGTLVTVSA
VL: NIVMTQSPKSMSMSVGERVTLTCKASENVVTYVSWYQQKPEQSPKLLIYGASNRYTGVPDRFTGSGSATDFTLTISSVQAEDLADYHCGQGYSYPYTFGGGTKLEIK
Consider B1, for which the increase in antibody binding (cells treated with Navelbine plus Cisplatin against control cells) stood at 34% and the increase in antibody binding (cells treated with Taxol against control cells) was determined as 8%.

The record behind these values is patent publication US7648703.
